In US20250154283A1 (published 2025):

Molecular target: T1, biotinylated human VWF cysteine knot (CK) domain construct (human, biotin on the in vitro biotinylation tag (residue not stated); one N-glycan)
T1 construct: Disulfide-linked homodimer; also called biotinylated human VWF CK domain; human VWF CK domain construct
T1 chain: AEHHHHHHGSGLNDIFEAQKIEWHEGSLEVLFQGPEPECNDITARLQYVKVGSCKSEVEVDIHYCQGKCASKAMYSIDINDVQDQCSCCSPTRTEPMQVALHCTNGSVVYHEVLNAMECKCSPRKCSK
Test: SPR, scFv captured on anti-SV5, pH 7.4; apparent Kd

Kd: 0.01 µM
B1: 17561_Lib6_scFv (scFv, not shown: small tags and cut ends)
scFv: EVQLVQSGAEVKKPGASVKVSCKASGYTFTDLPISWVRQAPGQGLEWMGWINPYTGDTNYAQKLQGRGTMTTDPSTSTAYMELRSLRSDDTAVYYCARDGVILGYYYYYGMDVWGQGTTVTVSSSGGSTITSYNVYYTKLSSSGTESALTQPASVSGSPGQSITISCTGTDLGSKSVSWYQQHPGKAPKLMIYDNFNRPSGVSNRFSGSKSGNTASLTISGLQAEDEADYYCSSRTVSGTYVFGGGTKLTVL
